Changes are numbered by the printed parent chain. Names may count otherwise.
Tests used:
[1] = Differential scanning fluorimetry (DSF) melting temperature; assay type: physicochemical
Experimental: DSF was performed on a LC480 Lightcycler Instrument II (Roche). Purified recombinant protein was diluted to 5 μM in DSF buffer (PBS, pH 7.4, Sypro Orange 5×) with small molecule (10 μM VTX) or vehicle (0.05% DMSO) and then heated with a temperature gradient (0.01° C./s) from 25 to 95° C. Data were continuously acquired at ˜465 nm (excitation) and ˜580 nm (emission). Data was analyzed to generate first derivative curves in which the curve maximum was reported as the melting temperature of the protein.

LS2A R3M1 (Ab0786) = assay: BLI binding of LS2B variants to LS2A R3M1 (Ab0786) with indinavir; details: for binding to LS2A clones (FIG. 17): biotinylated Ab0785 (R2M34) or Ab0786 (R3M1) captured, indinavir present
Experimental: Binding kinetics were measured by biolayer interferometry (BLI). Biotinylated-Ab0785 (LS2A R2M34 Fab) or biotinylated-Ab0786 (LS2A R3M1 Fab) was captured by streptavidin biosensors and binding to Ab1071 (LS2B R5M2 Fab), Ab1072 (LS2B R7M1 Fab), and Ab1073 (LS2B R7M2 Fab) was measured in the presence of […].
In R6 of engineering, alanine scanning of clone R4M16 were performed to find improved binding to LS2A R3M2 (Ab0787) and LS2A R3M1 (Ab0786). Variants were screened for binding to LS2A (Ab0223) and LS2A R3M2 (Ab0787) with a single-point kinetic screen.
In R7, combination mutants from R6 were designed to generate further affinity variants. Variants were screened for binding to LS2A Ab0787 and Ab0786 with a single-point kinetic screen. Five-point kinetics was measured for a subset of molecules.
Bio-layer interferometry (BLI) data were measured using an Octet RED384 (ForteBio) instrument. Antigens of interest were immobilized on an AHC biosensor and loaded until a 0.4-0.6-nm signal was achieved. Purified antibodies were used as the analyte premixed with 10 μM Indinavir or 0.05% DMSO vehicle. PBSTB (PBS, pH 7.4, 0.05% Tween-20, 0.2% BSA) was used for all buffers for BLI. Data were analyzed using ForteBio Octet analysis software and kinetic parameters were determined using a 1:1 monovalent binding model.

[2] = thermostability by DSF, Table 26

B1: Ab1018: anti-EpCAM binding domain, FIGS. 8A-8C (antibody, V domains shown)
VH: EVQLVESGGGLVQPGGSLRLSCAASGFTFSNYWMNWVRQAPGKGLEWVAQIRVKSENFATHYADSVKGRFTISRDDSKSTVYLQMNSLRAEDTAVYYCTLYEGFSWGQGTLVTVSS
VL: DIQMTQSPSSLSASVGDRVTITCSASSSVSSGNFHWYQQKPGKAPKLLIYRTSNLASGVPSRFSGSGSGTDYTLTISSLQPEDFATYYCQQWSGYPYTFGQGTKVEIK
For B1, the “TM (° C.)” value [1, 2] was 69.9 °C.

B2: Ab1026: anti-EpCAM binding domain, FIGS. 8A-8C (antibody, V domains shown)
VH: B1 VH with E102D
VL: B1 VL with W92A
In the case of B2, the “TM (° C.)” value [1, 2] is reported as 69.1 °C.

B3: Ab1022: anti-EpCAM binding domain, FIGS. 8A-8C (antibody, V domains shown)
VH: B1 VH with A40H, E102D
VL: B1 VL
With B3 the “TM (° C.)” value [1, 2] was 69.6 °C.

B4: Ab1066: anti-EpCAM binding domain, FIGS. 8A-8C (antibody, V domains shown)
VH: B1 VH with E102D, G103A
VL: B1 VL with W92A
With B4 the “TM (° C.)” value [1, 2] was 70.4 °C.

B5: Ab1020: anti-EpCAM binding domain, FIGS. 8A-8C (antibody, V domains shown)
VH: B1 VH with N35H, E102D
VL: B1 VL
For B5, the “TM (° C.)” value [1, 2] was 68 °C.

B6: Ab1024: anti-EpCAM binding domain, FIGS. 8A-8C (antibody, V domains shown)
VH: B1 VH with A63V, E102D
VL: B1 VL
In the case of B6, the “TM (° C.)” value [1, 2] is reported as 73.2 °C.

B7: Ab1065 (antibody, V domains shown)
VH: B1 VH
VL: B1 VL with W92A
For B7, the “TM (° C.)” value [1, 2] was 72.3 °C.

B8: Ab1071: LS2B R5M2 Fab (antibody, V domains shown)
VH: EVQLVESGGGLVQPGGSLRLSCAASGFDFSSYSIHWVRQAPGKGLEWVASISPYYGSTYYADSVKGRFTISADTSKNTAYLQMNSLRAEDTAVYYCARYYEWYKYDLYAGSLGFDYWGQGTLVTVSS
VL: DIQMTQSPSSLSASVGDRVTITCRASQSVSSAVAWYQQKPGKAPKLLIYSASSLYSGVPSRFSGSRSGTDFTLTISSLQPEDFATYYCQQGGYSLITFGQGTKVEIK
For B8, the “binding to LS2A clones (FIG. 17)” value (LS2A R3M1 (Ab0786)) was “weaker binding to LS2A R3M1 compared to LS2A R2M34”.

B9: Ab1044: LS2B; HC: S50A on Ab0902 (antibody, V domains shown)
VH: B8 VH with S50A
VL: B8 VL
In the case of B9, the “TM (° C.)” value ([1]; Table 15) is reported as 78.3 °C and the Kd (LS2A R3M1 (Ab0786); five-point kinetics, values equal Table 15 column LS2A Ab0786) is reported as 8.6 nM.

B10: Ab1072: LS2B R7M1 Fab (antibody, V domains shown)
VH: B8 VH with S50A
VL: B8 VL
In the case of B10, the “binding to LS2A clones (FIG. 17)” value (LS2A R3M1 (Ab0786)) is reported as “improved affinities”.

B11: Ab0898: humanized LS2A R2M34 (antibody)
heavy: QVQLVQSGAEVKKPGASVKVSCKASGYTFTSYWMHWVRQHPGQGLEWMGIIHPNSGGTSYAQKFQGRVTMTRDTSTSTVYMELSSLRSEDTAVYYCAMGDYVSRDYWGQGTLVTVSSGGGGSGGGGSGGGGSEIVLTQSPGTLSLSPGERATLSCRASSSVSSSYLHWYQQKPGQAPRLLIYSTSSRATGIPDRFSGSGSGTDFTLTISRLEPEDFAVYYCQQYSGYQFTFGQGTKLEIKGGGGSDKTHTCPPCPAPEAAGGPSVFLFPPKPKDTLMISRTPEVTCVVVDVSHEDPEVKFNWYVDGVEVHNAKTKPREEQYNSTYRVVSVLTVLHQDWLNGKEYKCKVSNKALGAPIEKTISKAKGQPREPQVYTLPPSRDELTKNQVSLTCLVKGFYPSDIAVEWESNGQPENNYKTTPPVLDSDGSFFLYSKLTVDKSRWQQGNVFSCSVMHEALHNHYTQKSLSLSPGK
modifications: light chain not cited; REGION 1..472: note = Ab0898 HC
notes: humanized LS2A R2M34
For B11, the “TM (° C.)” value ([1]; scFv-Fc format, LS2A R3 (Table 20)) was 52.5 °C.

B12: Ab0775: anti-CD3 binding domain, FIGS. 7A-7C (antibody)
heavy: EVQLVESGGGLVQPGGSLRLSCAASGFTFNTYAMNWVRQAPGKGLEWVGRIRSKYNNYATYYADSVKGRFTISRDDSKSILYLQMNSLRAEDTAVYYCVRHGNFGNSYVSWFAYWGQGTLVTVSSGGGGSGGGGSGGGGSDIQVTQSPSSLSASVGDRVTITCRSSTGAVTTSNYANWVQQKPGKAFKGLIGGTNKRAPGVPSRFSGSLSGDDATLTISSLQPEDFATYYCALWYSNLWVFGQGTKLEIKGGGGSDKTHTCPPCPAPEAAGGPSVFLFPPKPKDTLMISRTPEVTCVVVDVSHEDPEVKFNWYVDGVEVHNAKTKPREEQYNSTYRVVSVLTVLHQDWLNGKEYKCKVSNKALGAPIEKTISKAKGQPREPQVYTLPPSRDELTKNQVSLTCLVKGFYPSDIAVEWESNGQPENNYKTTPPVLDSDGSFFLYSKLTVDKSRWQQGNVFSCSVMHEALHNHYTQKSLSLSPGK
modifications: light chain not cited; REGION 1..482: note = Ab0775 HC
For B12, the “TM (° C.)” value ([1]; DSF, hSP34v68 R1 variants (Table 23)) was 64.1 °C.

B13: Ab0785: LS2A R2M34 Fab, His-Tag, Avi-Tag (antibody, V domains shown)
VH: QVQLVQSGAEVKKPGASVKVSCKASGYTFTSYWMHWVRQHPGQGLEWMGIIHPNSGGTSYAQKFQGRVTMTRDTSTSTVYMELSSLRSEDTAVYYCAMGDYVSRDYWGQGTLVTVSS
VL: EIVLTQSPGTLSLSPGERATLSCRASSSVSSSYLHWYQQKPGQAPRLLIYSTSSRATGIPDRFSGSGSGTDFTLTISRLEPEDFAVYYCQQYSGYQFTFGQGTKLEIK
With B13 the “TM (° C.)” value ([1]; Table 19) was 70.9 °C.

B14: Ab0788: LS2A R3M3 Fab, HC: S58N on R2M34 (antibody)
heavy: QVQLVQSGAEVKKPGASVKVSCKASGYTFTSYWMHWVRQHPGQGLEWMGIIHPNSGGTNYAQKFQGRVTMTRDTSTSTVYMELSSLRSEDTAVYYCAMGDYVSRDYWGQGTLVTVSSASTKGPSVFPLAPSSKSTSGGTAALGCLVKDYFPEPVTVSWNSGALTSGVHTFPAVLQSSGLYSLSSVVTVPSSSLGTQTYICNVNHKPSNTKVDKKVEPKSCGGGGSHHHHHHGGGGSGLNDIFEAQKIEWHEG
VL: B13 VL
In the case of B14, the “TM (° C.)” value ([1]; Table 19) is reported as 70.1 °C.

B15: Ab1069: anti-EpCAM T-LITE (CT) antibody, FIGS. 8A-8C, 9C (protein)
light: DIQMTQSPSSLSASVGDRVTITCSASSSVSSGNFHWYQQKPGKAPKLLIYRTSNLASGVPSRFSGSGSGTDYTLTISSLQPEDFATYYCQQWSGYPYTFGQGTKVEIKRTVAAPSVFIFPPSDEQLKSGTASVVCLLNNFYPREAKVQWKVDNALQSGNSQESVTEQDSKDSTYSLSSTLTLSKADYEKHKVYACEVTHQGLSSPVTKSFNRGEC
heavy 1: QVQLVQSGAEVKKPGASVKVSCKASGYTFTSYWMHWVRQHPGQGLEWMGMIHPNSGGTNYAQKFQGRVTMTRDTSTSTVYMELSSLRSEDTAVYYCAMGDYVSRDYWGQGTLVTVSSGGGGSGGGGSGGGGSEIVLTQSPGTLSLSPGERATLSCRASSSVSSSYLHWYQQKPGQAPRLLIYSTSSRATGIPDRFSGSGSGTDFTLTISRLEPEDFAVYYCQQYSGYQFTFGQGTKLEIKGGGGSDKTHTCPPCPAPEAAGGPSVFLFPPKPKDTLMISRTPEVTCVVVDVSHEDPEVKFNWYVDGVEVHNAKTKPREEQYNSTYRVVSVLTVLHQDWLNGKEYKCKVSNKALGAPIEKTISKAKGQPREPMVFDLPPSREEMTKNQVSLWCMVKGFYPSDIAVEWESNGQPENNYKTTPPVLDSDGSFFLYSKLTVDKSRWQQGNVFSCSVMHEALHNHYTQKSLSLSPGKHHHHHH
heavy 2: EVQLVESGGGLVQPGGSLRLSCAASGFTFSNYWMNWVRQAPGKGLEWVAQIRVKSENFATHYADSVKGRFTISRDDSKSTVYLQMNSLRAEDTAVYYCTLYDGFSWGQGTLVTVSSASTKGPSVFPLAPSSKSTSGGTAALGCLVKDYFPEPVTVSWNSGALTSGVHTFPAVLQSSGLYSLSSVVTVPSSSLGTQTYICNVNHKPSNTKVDKKVEPKSCDKTHTCPPCPAPEAAGGPSVFLFPPKPKDTLMISRTPEVTCVVVDVSHEDPEVKFNWYVDGVEVHNAKTKPREEQYNSTYRVVSVLTVLHQDWLNGKEYKCKVSNKALGAPIEKTISKAKGQPREPQVYTLPPIRELMTSNQVSLSCAVKGFYPSDIAVEWESNGQPENNYKTTPPVLDSDGSFFLVSKLTVDKSRWQQGNVFSCSVMHEALHNHYTQKSLSLSPGK
modifications: REGION 1..215: note = Ab1069 Hole LC; REGION 1..478: note = Ab1069 Knob KC; REGION 1..446: note = Ab1069 Hole HC
In the case of B15, the “TM (° C.)” value ([1]; thermostability by DSF, Table 27) is reported as 72.0 °C.

Reference: US20240190987A1, “Engineered EpCam Binding Antibodies” (TigaTX, priority 2021, published 2024)
